Reference: paper PMC5180416

Target: WDR5 (WD (Trp-Asp) repeat domain 5) (UniProt P61964)
Assay: fluorescence polarisation

Row | IC50 [nM] | Ki [nM] | Substance
1 | > 300000 | > 65000 | AKA (peptide)
2 |  | 20 | ARC (peptide)
3 | > 100000 |  | ARE (peptide)
4 | 280000 |  | ARF (peptide)
5 | 10300 | 2200 | ARG (peptide)
6 | 34000 | 7300 | ARL (peptide)
7 | 1800 |  | ARS (peptide)
8 | 80 |  | ART (peptide)
9 | 110 | 20 | ARV (peptide)
10 | 540 | 120 | Ac-ARA-NH2 (peptide)
11 | 1830 | 400 | CRA (peptide)
12 | 3100 |  | FRA (peptide)
13 | 77400 | 16700 | GRA (peptide)
14 | 1700 |  | HRA (peptide)
15 | 10800 | 2300 | LRA (peptide)
16 | 2900 |  | SRA (peptide)
17 | 2900 |  | TRA (peptide)
18 | 240 | 50 | VRA (peptide)
